According to paper PMC3388541:

Experiments:
Details in all cases: remark: other sources report otherwise
[1] = molecular target: T1, ScHSP26 (Saccharomyces cerevisiae), P15992; test: native MS
T1 chain: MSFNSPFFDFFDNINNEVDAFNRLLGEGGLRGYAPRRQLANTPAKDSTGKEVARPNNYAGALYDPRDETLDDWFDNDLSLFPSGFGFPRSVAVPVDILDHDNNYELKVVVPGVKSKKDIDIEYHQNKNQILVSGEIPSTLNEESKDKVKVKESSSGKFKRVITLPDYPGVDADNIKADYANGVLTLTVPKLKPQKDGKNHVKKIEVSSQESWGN

[2] = molecular target: T1, ScHSP26 (Saccharomyces cerevisiae), …; test: SEC-MALS
[3] = molecular target: T1, ScHSP26 (Saccharomyces cerevisiae), …; test: native MS
[4] = molecular target: T1, ScHSP26 (Saccharomyces cerevisiae), …; test: native MS
[5] = molecular target: T1, ScHSP26 (Saccharomyces cerevisiae), …; test: native MS
[6] = molecular target: T1, ScHSP26 (Saccharomyces cerevisiae), …; test: native MS
[7] = molecular target: T1, ScHSP26 (Saccharomyces cerevisiae), …; test: native MS
[8] = molecular target: T1, ScHSP26 (Saccharomyces cerevisiae), …; test: native MS

stoichiometry N [1]: 2 subunits
stoichiometry N [2]: 34 subunits
stoichiometry N [3]: 2 subunits
stoichiometry N [4]: 40 subunits
stoichiometry N [5]: 24 to 42 subunits
stoichiometry N [6]: 32 to 42 subunits
stoichiometry N [7]: 40 subunits
stoichiometry N [8]: 2 subunits
B1: ScHSP26, P15992 1-214 (natural protein)
chain: T1 chain
